Laboratory results reported in patent US20230399377A1.
Read-outs that look alike come from different tables or passages of the source.

Assays:
[1] = target: recombinant human VEGF-A165 (human) (UniProt P15692)
[2] = target: recombinant human VEGF-A165 (human) (UniProt P15692); remark: listed apart in the source
[3] = target: recombinant human VEGF-A165 (human) (UniProt P15692); remark: listed apart in the source
human PlGF (human) [4] = target: T1, human PlGF (human) (UniProt P49763); assay: SPR Biacore; Fc fusion captured on anti-human IgG (Fc) antibody chip, PlGF as analyte, 1:1 model
T1 sequence (looked up): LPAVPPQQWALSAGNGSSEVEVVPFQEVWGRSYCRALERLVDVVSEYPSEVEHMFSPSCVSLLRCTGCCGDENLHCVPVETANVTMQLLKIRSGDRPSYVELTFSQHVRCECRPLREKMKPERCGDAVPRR

human PlGF (human) [5] = target: T1, human PlGF (human); assay: as above; remark: listed apart in the source
[6] = target: recombinant human VEGF-A165 (human) (UniProt P15692); assay: SPR Biacore; Fc fusion captured on anti-human IgG (Fc) antibody chip, VEGF-A165 as analyte, 1:1 model
[7] = target: T2, human VEGF-B 167/189 (human) (UniProt P49765); assay: SPR Biacore; Fc fusion captured on anti-human IgG (Fc) antibody chip, VEGF-B167/189 as analyte, 1:1 model
T2 sequence (looked up): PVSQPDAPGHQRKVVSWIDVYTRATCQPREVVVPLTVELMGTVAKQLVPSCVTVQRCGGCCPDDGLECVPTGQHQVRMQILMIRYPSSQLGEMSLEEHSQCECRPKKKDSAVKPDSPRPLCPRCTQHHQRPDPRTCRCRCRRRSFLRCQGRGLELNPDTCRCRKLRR

[8] = target: recombinant human VEGF-C (human) (UniProt P49767)
[9] = target: recombinant human VEGF-C (human) (UniProt P49767); remark: listed apart in the source
[10] = target: recombinant human VEGF-C (human) (UniProt P49767); remark: listed apart in the source
[11] = target: recombinant human VEGF-D (human) (UniProt O43915)
Chain of recombinant human VEGF-D (human) (O43915 93-201 limits assumed): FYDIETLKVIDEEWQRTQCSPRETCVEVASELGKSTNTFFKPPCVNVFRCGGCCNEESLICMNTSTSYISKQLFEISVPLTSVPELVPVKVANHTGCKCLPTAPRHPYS

Chain of recombinant human VEGF-C (human) (P49767 103-227 limits assumed): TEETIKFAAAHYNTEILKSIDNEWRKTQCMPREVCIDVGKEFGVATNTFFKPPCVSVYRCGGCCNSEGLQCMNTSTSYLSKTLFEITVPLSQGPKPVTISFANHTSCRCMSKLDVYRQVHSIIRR
Chain of recombinant human VEGF-A165 (human) (P15692 other isoform, or with tags, fused parts or gaps limits assumed): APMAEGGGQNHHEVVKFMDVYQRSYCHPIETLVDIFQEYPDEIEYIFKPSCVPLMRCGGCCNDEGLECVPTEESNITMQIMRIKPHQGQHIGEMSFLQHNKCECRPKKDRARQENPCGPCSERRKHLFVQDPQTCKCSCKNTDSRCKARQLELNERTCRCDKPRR
Chain of aflibercept (Fc fusion) (chain): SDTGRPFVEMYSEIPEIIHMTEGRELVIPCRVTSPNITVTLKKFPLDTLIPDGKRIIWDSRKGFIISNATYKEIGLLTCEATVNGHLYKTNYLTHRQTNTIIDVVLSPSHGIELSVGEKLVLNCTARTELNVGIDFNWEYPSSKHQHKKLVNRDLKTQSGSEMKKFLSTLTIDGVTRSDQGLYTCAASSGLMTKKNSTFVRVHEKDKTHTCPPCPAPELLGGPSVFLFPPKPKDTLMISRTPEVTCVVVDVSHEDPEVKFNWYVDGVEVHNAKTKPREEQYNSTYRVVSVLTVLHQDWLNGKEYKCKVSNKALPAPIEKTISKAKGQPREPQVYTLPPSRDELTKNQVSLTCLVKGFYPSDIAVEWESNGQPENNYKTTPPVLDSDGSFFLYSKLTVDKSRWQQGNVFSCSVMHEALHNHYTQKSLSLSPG

Row | IC50, inhibition of VEGF-A165 (60 ng/mL) mediated VEGFR-2 signaling, VEGFR-2-NFAT-RE luciferase reporter cells [1] [pM] | IC50, inhibition of VEGF-A165 (100 ng/mL on the sheet) mediated HLEC proliferation, alamarBlue reduction [2] [pM] | IC50, inhibition of VEGF-A165 (60 ng/mL) mediated VEGFR-2 signaling, VEGFR-2-NFAT-RE luciferase reporter cells [3] [pM] | Kd (human PlGF (human) [4]) [pM] | Kd (human PlGF (human) [5]) [pM] | Kd [6] [pM] | Kd [7] [pM] | IC50, inhibition of VEGF-C (25 ng/mL) mediated VEGFR-2 signaling, VEGFR-2-NFAT-RE luciferase reporter cells [8] [pM] | IC50, inhibition of VEGF-C (40 ng/mL on the sheet) mediated HLEC proliferation, alamarBlue reduction [9] [pM] | IC50, MIXED STIMULUS VEGF-C (25 ng/mL) + VEGF-D (150 ng/mL): inhibition of HLEC proliferation, alamarBlue reduction; one IC50 for the mixture [10] [pM] | IC50, MIXED STIMULUS VEGF-C (25 ng/mL) + VEGF-D (150 ng/mL): inhibition of HLEC proliferation, alamarBlue reduction; one IC50 for the mixture [11] [pM] | Substance
1 | 410 | 1180 | 390 | 480 | 484 | 33.6 | 17.3 | – | – | – | – | aflibercept (Fc fusion)
2 | – | – | – | – | – | – | – | 9.3 | 1470 | 1260 | 1260 | recombinant human VEGFR-3 containing 7 extracellular domains (from UniProt P35916 25-775) (receptor)
